Laboratory results published in patent publication US20250382598A1.
“And” between values parts separate entries of the source, which are not always exact repeats. Equal entries are not always repeated.

Legend:
[1] = target: LbCas12a-Trex2 fusion (C-terminal Trex2; construct 25962) (Simian virus 40; Lachnospiraceae bacterium ND2006; Mus musculus); assay: cell-based or functional assay
[2] = target: LbCas12a-scTrex2 fusion (single-chained Trex2 homodimer at the C-terminus; construct 27433) (Simian virus 40; Lachnospiraceae bacterium ND2006; Mus musculus); assay: cell-based or functional assay

Substance | 1 kb Inversion (targeted fragment inversion in transgenic maize plants) [1] | 1 kb Inversion (targeted fragment inversion in transgenic maize plants) [2] | targeted inversion frequency among the 13 plants in which both targets were edited [2] [%]
LbCas12a-Trex2 fusion (C-terminal Trex2; construct 25962) (enzyme) | 28 plants and 18.4% |  | 
LbCas12a-scTrex2 fusion (single-chained Trex2 homodimer at the C-terminus; construct 27433) (enzyme) |  | 1 plants and 2% | 7.7
